In test [1] the target is CD70 on NAMALWA and Raji cells (human) (UniProt P32970). The test can be described thus: flow cytometry; EoL-1 cells stained with PE-conjugated anti-CD70 antibody; open histogram as control. (In general: Flow cytometry measures light scatter and fluorescence of single cells or particles in a stream.)
For test [2] the target is unchanged. The test can be described thus: flow cytometry; NAMALWA cells stained with PE-conjugated anti-CD70 antibody; open histogram as control.
The target is the same in test [3]. The test can be described thus: flow cytometry; Raji cells (panel title cut to 'Raj'; panel order given in the legend paragraph 42) stained with PE-conjugated anti-CD70 antibody; open histogram as control.
Test [4] shares this target. The test can be described thus: flow cytometry; Toledo cells stained with PE-conjugated anti-CD70 antibody; open histogram as control.
For test [5] the target is unchanged. The test can be described thus: flow cytometry; MV4;11 cells stained with PE-conjugated anti-CD70 antibody; open histogram as control.
Test [6] shares this target. The test can be described thus: flow cytometry; U-937 cells stained with PE-conjugated anti-CD70 antibody; open histogram as control.
Test [7] concerns the target T1, recombinant CD70-Fc (Sino Biological) (UniProt P32970 39-193, limits assumed).
T1 construct: Bought reagent; not shown: Fc part
T1 sequence (looked up): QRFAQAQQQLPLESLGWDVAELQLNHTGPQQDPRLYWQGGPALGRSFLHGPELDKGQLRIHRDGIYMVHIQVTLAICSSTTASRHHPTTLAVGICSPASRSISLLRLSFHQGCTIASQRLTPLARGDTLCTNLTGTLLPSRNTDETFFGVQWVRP
Nature of the test: flow cytometry; donor 1 T cells transduced with the CAR, day 14 post stimulation, stained with recombinant CD70-Fc and goat anti-human IgG Fc PE; mock-transduced cells as control. The procedure:
Peripheral blood mononuclear cells (PBMCs) were isolated from two different healthy donor leukopaks (Hemacare) using Ficoll®-Paque density centrifugation according to the manufacturer's instructions. PBMCs were stimulated using OKT3 (Muromonab-CD3, 50 ng/ml, Miltenyi Biotec) in R10 media supplemented with IL-2 (300 IU/ml, Proleukin®, Prometheus® Therapeutics and Diagnostics). Forty-eight hours post-stimulation, cells were transduced using lentivirus containing the different CD70 CAR constructs at a multiplicity of infection (MOI) of 10. Cells were maintained at 0.5×10⁶-2.0×10⁶ cells/ml prior to use in activity assays.
At day 14 post-stimulation, transduced T cells were stained with recombinant CD70-Fc (Sino Biological) in stain buffer (BD Pharmingen) for 30 minutes at 4° C. Cells were then washed and stained with goat anti-human IgG Fc PE (Jackson ImmunoResearch) in stain buffer for 30 minutes at 4° C. Cells were then washed and resuspended in stain buffer with propidium iodide (BD Pharmingen) prior to data acquisition. All experiments were performed in two different donors.

The values below come from US20180230224A1 (KITE PHARMA, published 2018).

In the case of “anti-CD70 antibody conjugated to PE (BD Pharmingen)”, the percent of cells in the positive gate (number in the panel) in test [1] was found to be 64.6%; in test [2] it was 100%; in test [3], 100%; in test [4], 99.9%; in test [5], 43.1%; in test [6], 96.6%.

B1: 8G1.1_C28T_4Bz (other)
chain: QEQLVESGGGVVQPGRSLRLSCAASGFTFSSYGMHWVRQAPGKGLEWVAVTWYDGSNKYYGDSVKGRFTISRDNSKNTLYLQMNSLRAEDTAVYYCARDLLRGVKGYAMDVWGQGTTVTVSSGGGGSGGGGSGGGGSEIVLTQSPGTLSLSPGERATLSCRASQSLRRIYLAWYQQKPGQAPRLLIYDVFDRATGIPDRFSGGGSGTDFTLTISRLEPEDFAVYYCQQYSDSPFTFGPGTKVDIKRAAALDNEKSNGTIIHVKGKHLCPSPLFPGPSKPFWVLVVVGGVLACYSLLVTVAFIIFWVRFSVVKRGRKKLLYIFKQPFMRPVQTTQEEDGCSCRFPEEEEGGCELRVKFSRSADAPAYQQGQNQLYNELNLGRREEYDVLDKRRGRDPEMGGKPRRKNPQEGLYNELQKDKMAEAYSEIGMKGERRRGKGHDGLYQGLSTATKDTYDALHMQALPPR
notes: Chimeric antigen receptor on lentivirus-transduced human T cells; 8G1 scFv, CD28T hinge/TM, 4-1BB, CD3 zeta; also called 28T-4Bz comprising an 8G1 scFv
Regarding B1, the “% CAR (+)” value in test [7] was determined as 49.8%.

B2: 6E9.1_C28T_28z (other)
chain: QVHLVQSGAEVKKPGASVRVSCKASGYTFTSYYLHWVRQAPGQGLEWMGIVDPSGGSTSYDQKFQGRFTMTRDTSTSTVYMELSSLRSEDTAVYYCARDYGDYVFDYWGQGTLVTVSSGGGGSGGGGSGGGGSQSVLTQPPSASGTPGQRVTISCSGSSSNIGTNTVNWYQQLPGTAPQLLIYINNQRPSGVPDRFSGSKSGTSASLAISGLQSEDEADYYCATWDDSLNGPVVGGGTKLTVLGAAALDNEKSNGTIIHVKGKHLCPSPLFPGPSKPFWVLVVVGGVLACYSLLVTVAFIIFWVRSKRSRLLHSDYMNMTPRRPGPTRKHYQPYAPPRDFAAYRSRVKFSRSADAPAYQQGQNQLYNELNLGRREEYDVLDKRRGRDPEMGGKPRRKNPQEGLYNELQKDKMAEAYSEIGMKGERRRGKGHDGLYQGLSTATKDTYDALHMQALPPR
notes: Chimeric antigen receptor on lentivirus-transduced human T cells; also called 28T-28z comprising a 6E9 scFv
Turning to B2, in test [7], the “% CAR (+)” value amounted to 4.45%.

B3: 6E9.1_C28T_4Bz (other)
chain: QVHLVQSGAEVKKPGASVRVSCKASGYTFTSYYLHWVRQAPGQGLEWMGIVDPSGGSTSYDQKFQGRFTMTRDTSTSTVYMELSSLRSEDTAVYYCARDYGDYVFDYWGQGTLVTVSSGGGGSGGGGSGGGGSQSVLTQPPSASGTPGQRVTISCSGSSSNIGTNTVNWYQQLPGTAPQLLIYINNQRPSGVPDRFSGSKSGTSASLAISGLQSEDEADYYCATWDDSLNGPVVGGGTKLTVLGAAALDNEKSNGTIIHVKGKHLCPSPLFPGPSKPFWVLVVVGGVLACYSLLVTVAFIIFWVRFSVVKRGRKKLLYIFKQPFMRPVQTTQEEDGCSCRFPEEEEGGCELRVKFSRSADAPAYQQGQNQLYNELNLGRREEYDVLDKRRGRDPEMGGKPRRKNPQEGLYNELQKDKMAEAYSEIGMKGERRRGKGHDGLYQGLSTATKDTYDALHMQALPPR
notes: Chimeric antigen receptor on lentivirus-transduced human T cells; 6E9 scFv, CD28T hinge/TM, 4-1BB, CD3 zeta; also called 28T-4Bz comprising a 6E9 scFv
For the molecule B3, the “% CAR (+)” value in test [7] came out at 4.48%.

B4: 1C8.1.001_C28T_4Bz (other)
chain: QVQLQESGPGLVKPSQTLSLTCTVSGDSIISGGYYWSWIRQHPGKGLEWIGYIFYSGSTDYNPSLKSRVTISVDTSKNQFSLKLSSVTAADTAVYYCARSGYSYALFDHWGQGTLVTVSSGGGGSGGGGSGGGGSDIQMTQSPSSLSASVGDRVTISCRASQFIGRYFNWYQQQPGKAPKVLIYAESSLQSGVPSRFSGSGSGTEFTLTISSLQPEDFARYYCQQSYSTPFTFGQGTKVEIKRAAALDNEKSNGTIIHVKGKHLCPSPLFPGPSKPFWVLVVVGGVLACYSLLVTVAFIIFWVRFSVVKRGRKKLLYIFKQPFMRPVQTTQEEDGCSCRFPEEEEGGCELRVKFSRSADAPAYQQGQNQLYNELNLGRREEYDVLDKRRGRDPEMGGKPRRKNPQEGLYNELQKDKMAEAYSEIGMKGERRRGKGHDGLYQGLSTATKDTYDALHMQALPPR
notes: Chimeric antigen receptor on lentivirus-transduced human T cells; 1C8 scFv, CD28T hinge/TM, 4-1BB, CD3 zeta; also called 28T-4Bz comprising a 1C8 scFv
Take B4: in test [7], the “% CAR (+)” value was determined as 0.27%.

B5: 1C8.1.001_C28T_28z (other)
chain: QVQLQESGPGLVKPSQTLSLTCTVSGDSIISGGYYWSWIRQHPGKGLEWIGYIFYSGSTDYNPSLKSRVTISVDTSKNQFSLKLSSVTAADTAVYYCARSGYSYALFDHWGQGTLVTVSSGGGGSGGGGSGGGGSDIQMTQSPSSLSASVGDRVTISCRASQFIGRYFNWYQQQPGKAPKVLIYAESSLQSGVPSRFSGSGSGTEFTLTISSLQPEDFARYYCQQSYSTPFTFGQGTKVEIKRAAALDNEKSNGTIIHVKGKHLCPSPLFPGPSKPFWVLVVVGGVLACYSLLVTVAFIIFWVRSKRSRLLHSDYMNMTPRRPGPTRKHYQPYAPPRDFAAYRSRVKFSRSADAPAYQQGQNQLYNELNLGRREEYDVLDKRRGRDPEMGGKPRRKNPQEGLYNELQKDKMAEAYSEIGMKGERRRGKGHDGLYQGLSTATKDTYDALHMQALPPR
notes: Chimeric antigen receptor on lentivirus-transduced human T cells; also called 28T-28z comprising a 1C8 scFv
On to B5, for which the “% CAR (+)” value in test [7] stood at 25.4%.

B6: 8G1.1_C28T_28z (other)
chain: QEQLVESGGGVVQPGRSLRLSCAASGFTFSSYGMHWVRQAPGKGLEWVAVTWYDGSNKYYGDSVKGRFTISRDNSKNTLYLQMNSLRAEDTAVYYCARDLLRGVKGYAMDVWGQGTTVTVSSGGGGSGGGGSGGGGSEIVLTQSPGTLSLSPGERATLSCRASQSLRRIYLAWYQQKPGQAPRLLIYDVFDRATGIPDRFSGGGSGTDFTLTISRLEPEDFAVYYCQQYSDSPFTFGPGTKVDIKRAAALDNEKSNGTIIHVKGKHLCPSPLFPGPSKPFWVLVVVGGVLACYSLLVTVAFIIFWVRSKRSRLLHSDYMNMTPRRPGPTRKHYQPYAPPRDFAAYRSRVKFSRSADAPAYQQGQNQLYNELNLGRREEYDVLDKRRGRDPEMGGKPRRKNPQEGLYNELQKDKMAEAYSEIGMKGERRRGKGHDGLYQGLSTATKDTYDALHMQALPPR
notes: also called CD70 CAR C3L; 28T-28z comprising an 8G1 scFv
B6: the “% CAR (+)” value in test [7] stood at 42.2%.
